B1: Pistol ribozyme (parent)
chain: GGGUCGUUGUUCCAUAAUCGCGUGGAUAUGGCACGCAAGUUUCUACCGGGCACCGUAAAUGUCCGACUGGAGCCGUUCGGGCGGCUAUAAACAGACCUCAGGCCCGAAGCGUGGCGGCACCUGCCGCCGGUGGUAAAAAAGAUCGGAAGAGCACACGUCU

Variants of B1 are the subject of this data set. Nature of the data set: aptazyme ON/OFF ratio, guanine; higher = stronger switching; co-transcriptional cleavage with and without guanine.
As to U7C U8A G9U U11C, the “aptazyme ON/OFF ratio” value came to 1.07.

Regarding U7C U8A G9U U11G, the “aptazyme ON/OFF ratio” value stood at 1.21.

U7C U8A G9U U11A: the “aptazyme ON/OFF ratio” value is 1.08.

For the variant U7C U8A G9U U10G C12U C13U, the “aptazyme ON/OFF ratio” value came out at 1.27.

For U7C U8A G9U U10G C12U C13A, the “aptazyme ON/OFF ratio” value is 1.1.

For the variant U7C U8A G9U U10G C12U C13G, the “aptazyme ON/OFF ratio” value is 1.25.

Take U7C U8A U10A U11G C12G C13U: the “aptazyme ON/OFF ratio” value was determined as 1.24.

With U7C U8A U10A U11G C12G C13G, the “aptazyme ON/OFF ratio” value was 1.13.

Consider U7C U8A U10A U11G C12G C13A, for which the “aptazyme ON/OFF ratio” value was 1.03.

Turning to U7C U8A U10A U11A C12G, the “aptazyme ON/OFF ratio” value is 1.2.

For U7C U8A U10A U11A C12A, the “aptazyme ON/OFF ratio” value turned out to be 1.15.

Consider U7C U8A U10A U11A C12U, for which the “aptazyme ON/OFF ratio” value is 1.26.

In the case of U7C U8A U10A C12G C13A, the “aptazyme ON/OFF ratio” value amounted to 1.32.

As to U7C U8A U10A C12G C13G, the “aptazyme ON/OFF ratio” value came to 1.22.

As for U7C U8A U10A C12G C13U, the “aptazyme ON/OFF ratio” value was 1.26.

Turning to U7C U8A U10A U11A C12G C13G, the “aptazyme ON/OFF ratio” value was determined as 1.31.

On to U7C U8A U10A U11A C12G C13U, for which the “aptazyme ON/OFF ratio” value stood at 1.23.

With U7C U8A U10A U11A C12G C13A, the “aptazyme ON/OFF ratio” value came out at 1.23.

With U7C U8A U10C U11A C13A, the “aptazyme ON/OFF ratio” value came to 1.12.

For the variant U7C U8A U10C U11A C13G, the “aptazyme ON/OFF ratio” value amounted to 1.15.

Regarding U7C U8A U10C U11A C13U, the “aptazyme ON/OFF ratio” value was 1.16.

As for U7C U8A U10A U11G C12G, the “aptazyme ON/OFF ratio” value came out at 1.19.

With U7C U8A U10A U11G C12A, the “aptazyme ON/OFF ratio” value was found to be 1.06.

For U7C U8A U10A U11G C12U, the “aptazyme ON/OFF ratio” value was determined as 1.24.

As for U7C U8A U10A U11A C13G, the “aptazyme ON/OFF ratio” value turned out to be 1.19.

With U7C U8A U10A U11A C13U, the “aptazyme ON/OFF ratio” value was determined as 1.17.

As for U7C U8A U10A U11A C13A, the “aptazyme ON/OFF ratio” value came to 1.17.

For U7C U8A G9U U10G U11A C12A C13G, the “aptazyme ON/OFF ratio” value came out at 1.09.

Regarding U7C U8A G9U U10G U11A C12A C13U, the “aptazyme ON/OFF ratio” value worked out at 1.21.

For the variant U7C U8A G9U U10G U11A C12A C13A, the “aptazyme ON/OFF ratio” value was determined as 1.35.

For the variant U7C U8A G9U U10G U11G C13U, the “aptazyme ON/OFF ratio” value turned out to be 1.06.

For U7C U8A G9U U10G U11G C13G, the “aptazyme ON/OFF ratio” value was 1.04.

In the case of U7C U8A G9U U10G U11G C13A, the “aptazyme ON/OFF ratio” value is 1.13.

U7C U8A G9U U10G C12G C13U: the “aptazyme ON/OFF ratio” value turned out to be 1.22.

On to U7C U8A G9U U10G C12G C13A, for which the “aptazyme ON/OFF ratio” value was 1.12.

Take U7C U8A G9U U10G C12G C13G: the “aptazyme ON/OFF ratio” value stood at 1.12.

As for U7C U8A U10G U11A C13G, the “aptazyme ON/OFF ratio” value worked out at 1.17.

Regarding U7C U8A U10G U11A C13U, the “aptazyme ON/OFF ratio” value stood at 1.07.

Take U7C U8A U10G U11A C13A: the “aptazyme ON/OFF ratio” value was 1.11.

As for U7C U8A G9U U10G U11A C12G C13A, the “aptazyme ON/OFF ratio” value worked out at 1.21.

Turning to U7C U8A G9U U10G U11A C12G C13U, the “aptazyme ON/OFF ratio” value was 1.2.

Take U7C U8A G9U U10G U11A C12G C13G: the “aptazyme ON/OFF ratio” value amounted to 1.22.

As to U7C U8A U10C U11C C13G, the “aptazyme ON/OFF ratio” value was found to be 1.09.

Regarding U7C U8A U10C U11C C13U, the “aptazyme ON/OFF ratio” value came out at 1.01.

Regarding U7C U8A U10C U11C C13A, the “aptazyme ON/OFF ratio” value was 1.04.

In the case of U7C U8A U10A U11C C12U C13A, the “aptazyme ON/OFF ratio” value is 1.08.

As to U7C U8A U10A U11C C12U C13U, the “aptazyme ON/OFF ratio” value stood at 1.04.

Regarding U7C U8A U10A U11C C12U C13G, the “aptazyme ON/OFF ratio” value was found to be 1.04.

For the variant U7C U8A G9U U11A C12A C13A, the “aptazyme ON/OFF ratio” value came out at 1.08.

Consider U7C U8A G9U U11A C12A C13G, for which the “aptazyme ON/OFF ratio” value is 1.18.

U7C U8A G9U U11A C12A C13U: the “aptazyme ON/OFF ratio” value turned out to be 1.41.

As for U7C U8A U10C C13A, the “aptazyme ON/OFF ratio” value worked out at 1.09.

Consider U7C U8A U10C C13G, for which the “aptazyme ON/OFF ratio” value stood at 1.22.

In the case of U7C U8A U10C C13U, the “aptazyme ON/OFF ratio” value turned out to be 3.34.

As for U7C U8A G9U U10C U11G C12A C13A, the “aptazyme ON/OFF ratio” value is 1.11.

Regarding U7C U8A G9U U10C U11G C12A C13U, the “aptazyme ON/OFF ratio” value stood at 1.1.

For U7C U8A G9U U10C U11G C12A C13G, the “aptazyme ON/OFF ratio” value turned out to be 1.09.

With U7C U8A G9U U10G U11C C13G, the “aptazyme ON/OFF ratio” value was found to be 1.07.

Regarding U7C U8A G9U U10G U11C C13U, the “aptazyme ON/OFF ratio” value was 1.05.

Regarding U7C U8A G9U U10G U11C C13A, the “aptazyme ON/OFF ratio” value worked out at 1.2.

Regarding U7C U8A G9U U10C U11A C12U C13U, the “aptazyme ON/OFF ratio” value was 1.15.

For U7C U8A G9U U10C U11A C12U C13G, the “aptazyme ON/OFF ratio” value was found to be 1.09.

For the variant U7C U8A G9U U10C U11A C12U C13A, the “aptazyme ON/OFF ratio” value was 1.11.

With U7C U8A U10A U11G C13G, the “aptazyme ON/OFF ratio” value was 1.04.

For U7C U8A U10A U11G C13U, the “aptazyme ON/OFF ratio” value amounted to 1.21.

With U7C U8A U10A U11G C13A, the “aptazyme ON/OFF ratio” value was found to be 1.15.

As for U7C U8A G9U U10G U11A C13G, the “aptazyme ON/OFF ratio” value came out at 1.07.

For the variant U7C U8A G9U U10G U11A C13U, the “aptazyme ON/OFF ratio” value amounted to 1.03.

Turning to U7C U8A G9U U10G U11A C13A, the “aptazyme ON/OFF ratio” value stood at 1.06.

On to U7C U8A U10A U11C C12G C13G, for which the “aptazyme ON/OFF ratio” value was found to be 1.22.

On to U7C U8A U10A U11C C12G C13A, for which the “aptazyme ON/OFF ratio” value came out at 1.15.

In the case of U7C U8A U10A U11C C12G C13U, the “aptazyme ON/OFF ratio” value worked out at 1.13.

As to U7C U8A G9U U10C U11C C13A, the “aptazyme ON/OFF ratio” value came out at 1.02.

As to U7C U8A G9U U10C U11C C13U, the “aptazyme ON/OFF ratio” value was determined as 1.01.

For U7C U8A G9U U10C U11C C13G, the “aptazyme ON/OFF ratio” value came out at 1.03.

In the case of U7C U8A G9U U10G U11G C12A C13G, the “aptazyme ON/OFF ratio” value was 1.11.

Take U7C U8A G9U U10G U11G C12A C13U: the “aptazyme ON/OFF ratio” value is 1.26.

With U7C U8A G9U U10G U11G C12A C13A, the “aptazyme ON/OFF ratio” value stood at 1.07.

As for U7C U8A G9U U10G U11C C12A C13G, the “aptazyme ON/OFF ratio” value is 1.16.

Consider U7C U8A G9U U10G U11C C12A C13U, for which the “aptazyme ON/OFF ratio” value was determined as 1.27.

As to U7C U8A G9U U10G U11C C12A C13A, the “aptazyme ON/OFF ratio” value was 1.18.

As to U7C U8A G9U U10G U11A C12U C13G, the “aptazyme ON/OFF ratio” value is 1.11.

Turning to U7C U8A G9U U10G U11A C12U C13U, the “aptazyme ON/OFF ratio” value is 1.1.

Consider U7C U8A G9U U10G U11A C12U C13A, for which the “aptazyme ON/OFF ratio” value came to 1.12.

These data come from the RNAGym collection of RNA variant scans (doi:10.1021/acssynbio.7b00057).
